Assay results published in patent US20220073613A1 (XILIO DEVELOPMENT, published 2022).

Experiments:
[1] = target: CTLA4 on CTLA4 expressing Jurkat cells (UniProt P16410 36-223, limits assumed); assay: cell-based or functional assay
[2] = target: T1, human CTLA4-Fc (R&D Systems, #7268-CT) (human, UniProt P16410 36-162); assay: ELISA, human CTLA4-Fc coated; protease +
T1 construct: Bought; not shown: Fc part

[3] = target: T1, human CTLA4-Fc (R&D Systems, #7268-CT); assay: ELISA, human CTLA4-Fc coated; protease -
[4] = target: T1, human CTLA4-Fc (R&D Systems, #7268-CT); assay: ELISA, human CTLA4-Fc coated; protease -; remark: listed apart in the source
[5] = target: T1, human CTLA4-Fc (R&D Systems, #7268-CT); assay: low density antigen binding ELISA, human CTLA4-Fc coated; no protease
[6] = target: T1, human CTLA4-Fc (R&D Systems, #7268-CT); assay: CTLA4 ELISA (luminescence) after culture of the antibody in RPMI as control
[7] = target: T1, human CTLA4-Fc (R&D Systems, #7268-CT); assay: low density antigen binding ELISA, human CTLA4-Fc coated; control not exposed to protease
[8] = target: T1, human CTLA4-Fc (R&D Systems, #7268-CT); assay: CTLA4 ELISA (luminescence) after culture of the antibody in colon tumor conditioned media
[9] = target: T2, CTLA4 coated on an MSD plate (Homo sapiens (Human), UniProt P16410 36-161); assay: binding to a CTLA4-coated MSD plate; antibody from plasma of MB49-bearing B-hCTLA4 mice 4 days after 10 mg/kg, IgG quantified by ELISA, 3-fold dilutions (Example 16)
T2 construct: not shown: The carrier of the coated recombinant CTLA4; It is probably the Fc of a CTLA4-Fc, as in the other ELISAs
T2 sequence (P16410 36-161 limits assumed): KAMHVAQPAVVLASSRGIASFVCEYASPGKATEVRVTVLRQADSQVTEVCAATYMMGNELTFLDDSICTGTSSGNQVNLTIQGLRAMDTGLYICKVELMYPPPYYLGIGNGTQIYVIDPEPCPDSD

[10] = target: T3, muCTLA4hsIgG protein (Abcam) (murine, UniProt P09793 36-161, limits assumed); assay: low density antigen binding ELISA, 3 ng muCTLA4hsIgG per well
T3 construct: Bought; also called murine CTLA4; not shown: human IgG part (hsIgG)

[11] = target: T4, murine CTLA4-Fc (R&D Systems) (murine, UniProt P09793 36-162); assay: ELISA, plate-coated murine CTLA4-Fc, anti-muKappa-HRP; ratio of EC50s
T4 construct: Bought; also called muCTLA4-hsIgG (R&D Systems); not shown: human IgG Fc part (hsIgG)

[12] = target: T3, muCTLA4hsIgG protein (Abcam); assay: low density antigen binding ELISA, muCTLA4hsIgG coated; average of three experiments

T1 sequence (P16410 36-162 limits assumed): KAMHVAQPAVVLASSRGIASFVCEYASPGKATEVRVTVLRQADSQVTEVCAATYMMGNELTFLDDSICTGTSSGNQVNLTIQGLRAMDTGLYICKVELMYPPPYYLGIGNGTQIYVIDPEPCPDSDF
Chain of CTLA4 on CTLA4 expressing Jurkat cells (P16410 36-223 limits assumed): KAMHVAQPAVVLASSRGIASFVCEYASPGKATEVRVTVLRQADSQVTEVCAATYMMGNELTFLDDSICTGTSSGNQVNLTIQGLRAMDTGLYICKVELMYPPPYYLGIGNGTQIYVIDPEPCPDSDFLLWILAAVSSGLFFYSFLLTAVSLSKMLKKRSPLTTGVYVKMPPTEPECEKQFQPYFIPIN

Row | EC50 of FcγRIIIa (ADCC) reporter activation, after exposure to protease [1] [ng/mL] | EC50 of FcγRIIIa (ADCC) reporter activation, without protease [1] [ng/mL] | EC50 [2] [nM] | EC50 [3] [nM] | EC50 [4] [nM] | EC50 [5] [nM] | EC50 (read off the curve) [6] [nM] | EC50 [7] [nM] | EC50 (read off the curve) [8] [nM] | EC50 (read off the curve) [9] [ng/mL] | fold lower binding than parental anti-CTLA4 antibody [10] [fold] | fold lower binding than parental anti-CTLA4 antibody (9D9) [11] [fold] | EC50 [12] [nM] | Binder
1 | 0.0049 | 0.008 | 0.39 | 0.39 | 0.69 | 0.69 | ~0.6 | 0.69 | ~0.4 | ~7 | – | – | – | Antibody 2-6 (antibody, human IgG1, kappa, Unmasked version of Antibody 2 with S239D and I332E in the Fc region; also called unmasked parental antibody; parental unmasked Antibody 2-6) light: EIVLTQSPDFQSVTPKEKVTITCSANSALSYMYWYQQKPDQSPKLWVHGTSNLASGVPSRFSGSGSGTDFTLTINSLEAEDAATYYCHHWSNTQWTFGGGTKVEIKRTVAAPSVFIFPPSDEQLKSGTASVVCLLNNFYPREAKVQWKVDNALQSGNSQESVTEQDSKDSTYSLSSTLTLSKADYEKHKVYACEVTHQGLSSPVTKSFNRGEC heavy: not shown
2 | – | – | – | – | – | – | – | – | – | – | ~156 | 90 | 48.4 | activatable masked anti-CTLA4 antibody (masked 9D9) (antibody, mouse IgG2a, kappa, Murine IgG2a; also called masked anti-CTLA4 antibody 2) light: ACNLIVEGHCGGSVPLSLYSGGGDIVMTQTTLSLPVSLGDQASISCRSSQSIVHSNGNTYLEWYLQKPGQSPKLLIYKVSNRFSGVPDRFSGSGSGTDFTLKISRVEAEDLGVYYCFQGSHVPYTFGGGTKLEIKRADAAPTVSIFPPSSEQLTSGGASVVCFLNNFYPKDINVKWKIDGSERQNGVLNSWTDQDSKDSTYSMSSTLTLTKDEYERHNSYTCEATHKTSTSPIVKSFNRNEC heavy: EAKLQESGPVLVKPGASVKMSCKASGYTFTDYYMNWVKQSHGKSLEWIGVINPYNGDTSYNQKFKGKATLTVDKSSSTAYMELNSLTSEDSAVYYCARYYGSWFAYWGQGTLITVSSAKTTAPSVYPLAPVCGDTTGSSVTLGCLVKGYFPEPVTLTWNSGSLSSGVHTFPAVLQSDLYTLSSSVTVTSSTWPSQSITCNVAHPASSTKVDKKIEPRGPTIKPCPPCKCPAPNLLGGPSVFIFPPKIKDVLMISLSPIVTCVVVDVSEDDPDVQISWFVNNVEVHTAQTQTHREDYNSTLRVVSALPIQHQDWMSGKEFKCKVNNKDLPAPIERTISKPKGSVRAPQVYVLPPPEEEMTKKQVTLTCMVTDFMPEDIYVEWTNNGKTELNYKNTEPVLDSDGSYFMYSKLRVEKKNWVERNSYSCSVVHEGLHNHHTTKSFSRTPGK
